Laboratory results taken from patent publication US20090005257A1 (published 2009).

Key:
[1] = molecular target: T1, human Tumor Necrosis Factor Receptor 1 (TNFR1) expressed on HeLa cells (human, UniProt P19438 30-455); assay: cell-based or functional assay
T1 sequence (looked up): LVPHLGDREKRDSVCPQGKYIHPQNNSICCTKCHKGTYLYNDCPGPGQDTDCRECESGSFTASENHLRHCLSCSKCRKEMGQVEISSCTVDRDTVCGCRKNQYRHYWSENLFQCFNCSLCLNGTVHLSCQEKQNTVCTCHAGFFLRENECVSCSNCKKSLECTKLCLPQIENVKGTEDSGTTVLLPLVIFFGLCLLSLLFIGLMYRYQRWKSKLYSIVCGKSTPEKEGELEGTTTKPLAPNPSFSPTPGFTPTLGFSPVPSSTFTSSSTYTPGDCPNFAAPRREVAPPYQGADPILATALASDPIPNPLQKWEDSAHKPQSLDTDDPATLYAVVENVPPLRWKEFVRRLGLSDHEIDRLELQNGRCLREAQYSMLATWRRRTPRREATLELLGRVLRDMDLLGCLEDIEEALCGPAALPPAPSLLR

[2] = molecular target: T2, TNF receptor 1 Fc fusion protein (human, UniProt P19438 30-211); assay: receptor binding ELISA: dAb mixed with TNF (10 ng/ml) and added to TNFR1-Fc captured by anti-human Fc; bound TNF detected with biotinylated anti-TNF antibody; blocked ligand TNF
T2 construct: Bought; also called recombinant TNF receptor 1 (p55); human Tumor Necrosis Factor Receptor 1; not shown: Fc part of the bought fusion protein (captured by an anti-human Fc antibody)
T2 sequence (looked up): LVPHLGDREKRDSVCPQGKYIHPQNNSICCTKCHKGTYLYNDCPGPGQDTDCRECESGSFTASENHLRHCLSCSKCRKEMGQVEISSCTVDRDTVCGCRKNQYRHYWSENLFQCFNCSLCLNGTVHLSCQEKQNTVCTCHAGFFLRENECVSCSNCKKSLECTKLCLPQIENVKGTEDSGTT

human serum albumin [3] = molecular target: T3, human serum albumin (human, UniProt P02768 25-609); assay: phage ELISA on HSA, heated 80 C 10 min against unheated
T3 construct: also called HSA
T3 sequence (P02768 25-609 limits assumed): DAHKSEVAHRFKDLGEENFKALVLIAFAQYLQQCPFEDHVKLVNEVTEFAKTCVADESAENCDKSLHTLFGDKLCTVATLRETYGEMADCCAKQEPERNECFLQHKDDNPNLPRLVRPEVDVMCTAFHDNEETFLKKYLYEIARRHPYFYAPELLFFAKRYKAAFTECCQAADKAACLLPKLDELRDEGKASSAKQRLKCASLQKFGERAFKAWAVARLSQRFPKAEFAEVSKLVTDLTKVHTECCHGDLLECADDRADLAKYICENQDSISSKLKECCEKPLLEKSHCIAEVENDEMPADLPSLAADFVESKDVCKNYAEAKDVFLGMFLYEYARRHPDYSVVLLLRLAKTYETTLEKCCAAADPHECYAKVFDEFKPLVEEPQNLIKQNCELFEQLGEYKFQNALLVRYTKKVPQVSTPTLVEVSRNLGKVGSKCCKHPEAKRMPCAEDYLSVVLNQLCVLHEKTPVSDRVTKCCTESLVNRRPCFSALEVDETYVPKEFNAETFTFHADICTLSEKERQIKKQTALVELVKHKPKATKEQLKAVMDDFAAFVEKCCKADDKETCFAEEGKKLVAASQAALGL
Protocol: (§1) A phage ELISA was performed according to the protocol of Section 5 with the following modifications. 1×10¹⁰ phage were either heat-treated (10 minutes at 80° C. in 100 μL aliquots) or left untreated. The samples were centrifuged for 10 minutes at 14,000 rpm at 4° C. and the supernatants were added to ELISA wells coated with HSA (with a dilution series of ⅓). After developing the ELISA, the OD450 nm values (y-axis) for each heat treated/unheated phage pair were plotted against the phage number α-axis) and the %-refoldability was calculated.

human serum albumin [4] = molecular target: T3, human serum albumin; assay: phage ELISA on HSA, heated against unheated
Protocol: The ELISA wells were coated overnight at 4° C. with one of the following ligands: 10 μg/ml of protein A in PBS, 10 μg/ml of mAb 9E10 in PBS, or 3 mg/ml of HEL in 0.1 M NaHCO₃ buffer, pH 9.6. After blocking the wells with PBS containing 2% Tween-20 (PBST), a dilution series of phage in PBST was incubated for 2 h. After washing with PBS, bound phage were detected as follows. In assays for binding to REL, phage was detected directly using a conjugate of horseradish peroxidase with an anti-M13 monoclonal antibody (Amersham) using 3,3′,5,5′-tetramethylbenzidine as substrate. In assays for binding to protein A, the phage (4×10¹⁰ TU/ml in PBS) was first biotinylated at 4° C. with biotin-NHS (Perbio) (50 μM final concentration) and detected by sequential addition of streptavidin-horseradish peroxidase conjugate (1 μg/ml) (Sigma-Aldrich) in PBST, and substrate as above. In assays for binding to human serum albumin (USA) (Sigma, coating at 10 μg/ml in PBS), the ELISA was performed in PBS supplemented with 2% skim-milk powder (PBSM) and bound phage were detected in two steps using a rabbit anti-fd bacteriophage monoclonal antibody (Sigma, 1/1000 dilution) and goat anti-rabbit IgG serum conjugated with horseradish peroxidase (Sigma, 1/1000 dilution) and substrate as above.

human serum albumin [5] = molecular target: T3, human serum albumin; assay: phage ELISA on HSA, purified phage, 1/3 dilution series
Protocol: as §1

protein A [6] = molecular target: T4, protein A (UniProt P38507 37-477); assay: phage ELISA on protein A, heated 80 C against unheated, titration (Section 5)
T4 construct: also called pA
Protocol: (§2) After biotinylation of the phage, for each clone, a 100 μl sample of phage was transferred to a thin-wall PCR tube (and the remaining biotinylated phage was kept on ice). The tube was placed in a PCR apparatus for incubation at 80° C. during 10 min (temperature of cover lid: 85° C.). After heating, the tube was rapidly cooled down to 4° C. in the PCR apparatus.
(§3) ELISA plates were coated and blocked as described in Section 4. The samples were transferred to the empty wells of coated/blocked ELISA plates, and incubated for 2 hours at room temperature. Unbound phage was then removed by washing the wells 6-ties with PBS. For detection, Str-HRP (from a 1 mg/ml stock in PBS) were diluted 1/2000 in PBS supplemented with 2% v/v TWEEN 20 (Polyoxyethylensorbitan monolaurate; for protein A-based ELISA) or 2% w/v BSA (for protein L-based ELISA), and 100 μl of the resulting solution was added to each ELISA well. After incubation for 1 hour at room temperature, the unbound conjugate was removed by washing the wells 6-times with PBS. For colorimetric reaction, a 10 mg/ml solution of TMB (tetramethylbenzidine) was diluted 100-fold in a buffer of 0.1 M sodium acetate, pH 6.0. Next, hydrogen peroxyde was added (0.4 ul per ml of buffer/TMB, and 100 ul of this solution was added to each ELISA well. After color (blue) developed, the reaction was stopped by adding 50 μl of 1 M sulfuric acid per well (color turns to yellow). The optical density was recorded at 450 nm.

protein A [7] = molecular target: T4, protein A; assay: phage ELISA on protein A, heated 80 C against unheated, three data points
Protocol: as §2, §3
These clones were characterized for refoldability on phage (according to the protocol of Section 5, but with three data points being taken) and in solution.

TNF-α [8] = molecular target: T5, TNF-α (UniProt P01375 77-233); assay: RBA-ELISA: dAb competes with binding of soluble TNF-α to immobilised TNF-α receptor
T5 construct: also called tumour necrosis factor
T5 sequence (P01375 77-233 limits assumed): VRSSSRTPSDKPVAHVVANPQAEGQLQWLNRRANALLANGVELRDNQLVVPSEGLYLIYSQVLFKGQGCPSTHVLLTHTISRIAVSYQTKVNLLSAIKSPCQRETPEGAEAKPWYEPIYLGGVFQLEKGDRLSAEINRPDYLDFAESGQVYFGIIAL

TNF-α [9] = molecular target: T5, TNF-α; assay: phage ELISA on TNF-α coated wells, heated 80 C 10 min against unheated
TNF-α [10] = molecular target: T5, TNF-α; assay: RBA-ELISA

B1: TAR2-10-27 (other)
VH: EVQLLESGGGLVQPGGSLRLSCAASGFTFEWYWMGWVRQAPGKGLEWVSAISGSGGSTYYADSVKGRFTISRDNSKNTLYLQMNSLRAEDAAVYYCAKVKLGGGPNFGYRGQGTLVTVSS
notes: Human VH3 single domain (dAb) against human TNFR1, tested as soluble protein purified on protein A beads
- IC50 (read off the curve), inhibition of TNF-induced IL-8 secretion of HeLa cells [1]: ~0.01 µM
- IC50 (read off the curve) [2]: ~0.005 µM

B2: TAR2-10-27-F27D (other)
VH: EVQLLESGGGLVQPGGSLRLSCAASGDTFEWYWMGWVRQAPGKGLEWVSAISGSGGSTYYADSVKGRFTISRDNSKNTLYLQMNSLRAEDAAVYYCAKVKLGGGPNFGYRGQGTLVTVSS
notes: Soluble dAb
- IC50 (read off the curve) [2]: ~0.006 µM

B3: TAR2-10-27-Y32D (other)
VH: EVQLLESGGGLVQPGGSLRLSCAASGFTFEWDWMGWVRQAPGKGLEWVSAISGSGGSTYYADSVKGRFTISRDNSKNTLYLQMNSLRAEDAAVYYCAKVKLGGGPNFGYRGQGTLVTVSS
- IC50 (read off the curve), inhibition of TNF-induced IL-8 secretion of HeLa cells [1]: ~0.005 µM

B4: anti-HSA VH clone #3 (other)
VH: EVQLLESGGGLVQPGGSLRLSCAASGFTFSKYWMSWVRQAPGKGLEWVSSIDFMGPHTYYADSVKGRFTISRDNSKNTLYLQMNSLRAEDTAVYYCAKGRTSMLPMKGKFDYWGQGTLVTVSS
notes: As clone #1
- Refoldability (HSA binding retained after heating) (human serum albumin [3]): 0.55%
- % HSA binding signal retained after heating (human serum albumin [4]): < 10%
- phage number, +Heat (human serum albumin [5]): 1e+10 phage
- phage number, -Heat (human serum albumin [5]): 5.5e+07 phage

B5: pA-C59 (other)
VH: EVQLLESGGGLVQPGGSLRLSCAASGDSISDDYMAWVRQAPGKGLEWVSSIDDKNGSTYYADSVKGRFTISRDNSKNTLYLQMNSLRAEDTAVYYCAGGDGQAHKVDYWGQGTLVTVSS
notes: Frameworks of DP47d, ranges as for HEL4
- % refolding (protein A binding retained after heating) (protein A [6]): 25%

B6: pA-C36 (other)
VH: EVQLLESGGGLVQPGGSLRLSCAASGVNVSHDSMTWVRQAPGKGLEWVSAIRGPNGSTYYADSVKGRFTISRDNSKNTLYLQMNSLRAEDTAVYYCASGARHADTERPPSQQTMPFWGQGTLVTVSS
notes: Frameworks of DP47d, ranges as for HEL4; also called pA-36
- % refolding (protein A binding retained after heating) (protein A [6]): 25%
- Refoldability on phage (protein A binding retained after heating) (protein A [7]): 80%

B7: TAR1-5-19 (other)
VL: DIQMTQSPSSLSASVGDRVTITCRASQSIDSYLHWYQQKPGKAPKLLIYSASELQSGVPSRFSGSGSGTDFTLTISSLQPEDFATYYCQQVVWRPFTFGQGTKVEIKR
notes: Vκ1 single domain (dAb) specific for TNF-α; also called PEP1-5-19
- IC50 (TNF-α [8]): 0.03 µM
- % refolding (TNF-α binding retained after heating) (TNF-α [9]): 80%

B8: TAR1-5-19-Y49N (other)
VL: DIQMTQSPSSLSASVGDRVTITCRASQSIDSYLHWYQQKPGKAPKLLINSASELQSGVPSRFSGSGSGTDFTLTISSLQPEDFATYYCQQVVWRPFTFGQGTKVEIKR
- fold reduction of binding against TAR1-5-19 (TNF-α [10]): 6 to 20 fold
- IC50 (TNF-α [8]): 0.9 µM
- % refolding (TNF-α binding retained after heating) (TNF-α [9]): 98%

B9: TAR1-5-19-Y49D (other)
VL: DIQMTQSPSSLSASVGDRVTITCRASQSIDSYLHWYQQKPGKAPKLLIDSASELQSGVPSRFSGSGSGTDFTLTISSLQPEDFATYYCQQVVWRPFTFGQGTKVEIKR
- fold reduction of binding against TAR1-5-19 (TNF-α [10]): 6 to 20 fold
- IC50 (TNF-α [8]): 0.2 µM
- % refolding (TNF-α binding retained after heating) (TNF-α [9]): 93%

B10: pA-C47 (other)
VH: EVQLLESGGGLVQPGGSLRLSCAASGYNITDENMAWVRQAPGKGLEWVSTIAADNGSTYYADSVKGRFTISRDNSKNTLYLQMNSLRAEDTAVYYCATTEAAGVEEDNVRSWGQGTLVTVSS
notes: as for B5
- % refolding (protein A binding retained after heating) (protein A [6]): 25%

B11: anti-HSA VH clone #1 (other)
VH: EVQLLESGGGLVQPGGSLRLSCAASGFTFDLYDMSWVRQAPGKGLEWVSSIVNSGVRTYYADSVKGRFTISRDNSKNTLYLQMNSLRAEDTAVYYCAKLNQSYHWDFDYWGQGTLVTVSS
notes: From library 4G (human VH3, DP47 germline gene + JH4 segment)
- Refoldability (HSA binding retained after heating) (human serum albumin [3]): 1.5%
- % HSA binding signal retained after heating (human serum albumin [4]): < 10%
- phage number, +Heat (human serum albumin [5]): 1e+10 phage
- phage number, -Heat (human serum albumin [5]): 1.5e+08 phage

B12: DP47 F27D/F29V (other, name in Kabat numbering)
VH: EVQLLESGGGLVQPGGSLRLSCAASGDTVSSYAMSWVRQAPGKGLEWVSAISGSGGSTYYADSVKGRFTISRDNSKNTLYLQMNSLRAEDTAVYYCAKSYGAFDYWGQGTLVTVSS
- Refoldability on phage (protein A binding retained after heating) (protein A [7]): 62%

B13: DP47 quadruple mutant F27D/F29V/S35G/Y32E (other, name in Kabat numbering)
VH: EVQLLESGGGLVQPGGSLRLSCAASGDTVSSEAMGWVRQAPGKGLEWVSAISGSGGSTYYADSVKGRFTISRDNSKNTLYLQMNSLRAEDTAVYYCAKSYGAFDYWGQGTLVTVSS
- % refolding (protein A binding retained after heating) (protein A [6]): 29.5%

B14: DP47 F27D/F29V/Y32D/S35G (other, name in Kabat numbering)
VH: EVQLLESGGGLVQPGGSLRLSCAASGDTVSSDAMGWVRQAPGKGLEWVSAISGSGGSTYYADSVKGRFTISRDNSKNTLYLQMNSLRAEDTAVYYCAKSYGAFDYWGQGTLVTVSS
notes: kept apart as printed
- Refoldability on phage (protein A binding retained after heating) (protein A [7]): 80%

B15: DP47 S30N/A33D (other, name in Kabat numbering)
VH: EVQLLESGGGLVQPGGSLRLSCAASGFTFNSYDMSWVRQAPGKGLEWVSAISGSGGSTYYADSVKGRFTISRDNSKNTLYLQMNSLRAEDTAVYYCAKSYGAFDYWGQGTLVTVSS
notes: also called A33D/S30N
- % refolding (protein A binding retained after heating) (protein A [6]): 2.11%
- Refoldability on phage (protein A binding retained after heating) (protein A [7]): 81%

B16: DP47 S53P/G54D (other, name in Kabat numbering)
VH: EVQLLESGGGLVQPGGSLRLSCAASGFTFSSYAMSWVRQAPGKGLEWVSAISGPDGSTYYADSVKGRFTISRDNSKNTLYLQMNSLRAEDTAVYYCAKSYGAFDYWGQGTLVTVSS
- Refoldability on phage (protein A binding retained after heating) (protein A [7]): 19%

B17: anti-HSA VH clone #6 (other)
VH: EVQLLESGGGLVQPGGSLRLSCAASGFTFHRYSMSWVRQAPGKGLEWVSTILPGGDVTYYADSVKGRFTISRDNSKNTLYLQMNSLRAEDTAVYYCAKQTPDYMFDYWGQGTLVTVSS
notes: As clone #1
- Refoldability (HSA binding retained after heating) (human serum albumin [3]): < 0.2%
- % HSA binding signal retained after heating (human serum albumin [4]): < 10%
- phage number, +Heat (human serum albumin [5]): 9.75e+09 phage
- phage number, -Heat (human serum albumin [5]): 2.1e+07 phage

B18: anti-HSA VH clone #10 (other)
VH: EVQLLESGGGLVQPGGSLRLSCAASGFTFDEYNMSWVRQAPGKGLEWVSTILPHGDRTYYADSVKGRFTISRDNSKNTLYLQMNSLRAEDTAVYYCAKQDPLYRFDYWGQGTLVTVSS
notes: As clone #1; the one clone recovered with the heat step
- Refoldability (HSA binding retained after heating) (human serum albumin [3]): ~100%
- phage number, +Heat (human serum albumin [5]): 1e+10 phage
- phage number, -Heat (human serum albumin [5]): 1e+10 phage

B19: anti-HSA VH clone #4 (other)
VH: EVQLLESGGGLVQPGGSLRLSCAASGFTFYDYNMSWVRQAPGKGLEWVSTITHTGGVTYYADSVKGRFTISRDNSKNTLYLQMNSLRAEDTAVYYCAKQNPSYQFDYWGQGTLVTVSS
notes: As clone #1
- Refoldability (HSA binding retained after heating) (human serum albumin [3]): 9.1%
- % HSA binding signal retained after heating (human serum albumin [4]): < 10%
- phage number, +Heat (human serum albumin [5]): 1e+10 phage
- phage number, -Heat (human serum albumin [5]): 5.7e+08 phage

B20: anti-HSA VH clone #2 (other)
VH: EVQLLESGGGLVQPGGSLRLSCAASGFTFSDYRMSWVRQAPGKGLEWVSTIISNGKFTYYADSVKGRFTISRDNSKNTLYLQMNSLRAEDTAVYYCAKQDWMYMFDYWGQGTLVTVSS
notes: As clone #1
- % HSA binding signal retained after heating (human serum albumin [4]): < 10%
- phage number, +Heat (human serum albumin [5]): 1e+10 phage
- phage number, -Heat (human serum albumin [5]): 1.3e+09 phage

B21: pA-C76 (other)
VH: EVQLLESGGGLVQPGGSLRLSCAASGDNVISDDMSWVRQAPGKGLEWVSTINGPSGSTYYADSVKGRFTISRDNSKNTLYLQMNSLRAEDTAVYYCAANGEDTDMLDMWGDRSAALKSWGQGTLVTVSS
notes: as for B5
- % refolding (protein A binding retained after heating) (protein A [6]): 35%

B22: pA-C13 (other)
VH: EVQLLESGGGLVQPGGSLRLSCAASGDMVNDKDMSWVRQAPGKGLEWVSSISTENGSTYYADSVKGRFTISRDNSKNTLYLQMNSLRAEDTAVYYCAGVRDEVAMGENPDLSYWGQGTLVTVSS
notes: From the library made by diversifying the CDR loops of DP47d; frameworks of DP47d, ranges as for HEL4; also called Clone 13
- % refolding (protein A binding retained after heating) (protein A [6]): 35%

B23: anti-HSA VH clone #7 (other)
VH: EVQLLESGGGLVQPGGSLRLSCAASGFTFWKYNMAWVRQAPGKGLEWVSTILGEGNNTYYADSVKGRFTISRDNSKNTLYLQMNSLRAEDTAVYYCAKTMDYKFDYWGQGTLVTVSS
notes: As clone #1
- % HSA binding signal retained after heating (human serum albumin [4]): < 10%
